Data from patent publication US20250304666A1 (ALCHEMAB THERAPEUTICS, published 2025).

B1: 4894 phage (scFv)
scFv displayed on phage: QVQLVESGGGVVQPGRSLRLSCAASGFTFSIYGMHWVRQAPGKGLEWVAVMSFDGKTKYYADSVKGRFTISRDNSKNTLYLQMNSLRAEDTAVYYCAKGGATAAVFDSWGQGTLVTVSGGGGSGGGGSGGGGSDIVMTQSPDSLAVSLGERATINCKSSQSLLYRSNNKNYLAWYQQKPGQPPKLLIYWASTRESGVPDRFSGSGSGTDFTLTISSLQAEDVAVYYCQQYYNPPWTFGQGTKVEIK
notes: also called phage displaying the ATL4894 scFv
B2: ATL_0004715 (antibody, human IgG1, kappa, V domains shown)
VH: EVQLVESGGGVVQPGRSLRLSCAASGFTFSRYGMHWVRQAPGKGLEWVAVMSYDGSTKYYADSVKGRFAISRDNPKNTLFLQMNSLRPDDTAVYYCAKGGAAAAVMDVWGKGTTVTVSS
VL: DIVMTQSPDSLTVSLGERATISCKSSQRLLYSSNNKNYLAWYQQKPGQPPKLLMYWASTRESGVPDRFSGSGSGTDFSLTISSLQAEDVAVYYCQQYYNPPWTFGQGTKVEVKR
notes: also called ATL4715
B3: ATL_0005155 (antibody, human IgG1, kappa, V domains shown)
VH: QVQLVESGGGVVQPGRSLRLSCAASGFTFSNYGMHWVRQAPGKGLEWVAVTSFDGKTKYYADSVKGRFTISRDNSKNTLYLQMNSLRAEDTAVYYCAKGGATAAVFDSWGQGTLVTVSS
VL: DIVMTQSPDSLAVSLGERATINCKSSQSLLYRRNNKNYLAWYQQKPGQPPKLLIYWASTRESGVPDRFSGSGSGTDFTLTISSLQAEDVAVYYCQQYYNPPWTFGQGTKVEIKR
notes: one of the 10 lead mAbs; IgG1; also called ATL5155; ATL_0005155-001
B4: ATL_0004894 (antibody, human IgG1, kappa, V domains shown)
VH: QVQLVESGGGVVQPGRSLRLSCAASGFTFSIYGMHWVRQAPGKGLEWVAVMSFDGKTKYYADSVKGRFTISRDNSKNTLYLQMNSLRAEDTAVYYCAKGGATAAVFDSWGQGTLVTVSS
VL: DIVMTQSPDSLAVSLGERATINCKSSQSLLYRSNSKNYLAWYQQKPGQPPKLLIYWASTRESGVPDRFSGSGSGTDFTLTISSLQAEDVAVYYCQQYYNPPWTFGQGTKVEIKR
notes: germlined ATL4717, IgG1; also called ATL4894; 4894 IgG

Tests used:
[1] = target: T1, reduced CFHR5 (UniProt Q9BXR6 19-569, limits assumed); experiment: phage ELISA on reduced CFHR5 [B]
T1 sequence (looked up): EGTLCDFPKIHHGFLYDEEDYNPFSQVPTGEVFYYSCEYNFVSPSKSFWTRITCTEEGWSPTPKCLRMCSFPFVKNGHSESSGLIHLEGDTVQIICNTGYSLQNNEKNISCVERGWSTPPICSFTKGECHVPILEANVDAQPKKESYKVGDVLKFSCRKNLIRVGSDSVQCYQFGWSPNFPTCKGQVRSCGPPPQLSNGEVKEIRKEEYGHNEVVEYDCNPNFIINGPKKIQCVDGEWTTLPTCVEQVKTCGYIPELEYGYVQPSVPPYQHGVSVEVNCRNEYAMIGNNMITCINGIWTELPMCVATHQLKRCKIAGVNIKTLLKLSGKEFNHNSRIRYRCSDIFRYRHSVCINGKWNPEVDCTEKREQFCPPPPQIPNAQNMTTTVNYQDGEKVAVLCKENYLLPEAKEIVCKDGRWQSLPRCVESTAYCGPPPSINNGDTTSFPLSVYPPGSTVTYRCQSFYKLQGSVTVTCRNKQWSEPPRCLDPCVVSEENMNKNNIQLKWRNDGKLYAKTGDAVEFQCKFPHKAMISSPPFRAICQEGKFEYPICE

[2] = target: T2, reduced CFHR1 (UniProt Q03591 19-330, limits assumed); experiment: ELISA, reduced antigen
T2 sequence (looked up): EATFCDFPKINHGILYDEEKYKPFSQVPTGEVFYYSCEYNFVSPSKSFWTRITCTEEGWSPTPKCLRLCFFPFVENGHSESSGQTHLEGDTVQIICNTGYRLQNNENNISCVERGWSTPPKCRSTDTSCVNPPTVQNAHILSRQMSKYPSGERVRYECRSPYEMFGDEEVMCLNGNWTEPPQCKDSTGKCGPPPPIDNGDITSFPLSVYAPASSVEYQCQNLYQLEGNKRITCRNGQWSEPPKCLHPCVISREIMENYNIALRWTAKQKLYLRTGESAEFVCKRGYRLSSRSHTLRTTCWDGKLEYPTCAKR

[3] = target: T3, reduced CFHR2 (UniProt P36980 19-270, limits assumed); experiment: ELISA, reduced antigen
T3 sequence (looked up): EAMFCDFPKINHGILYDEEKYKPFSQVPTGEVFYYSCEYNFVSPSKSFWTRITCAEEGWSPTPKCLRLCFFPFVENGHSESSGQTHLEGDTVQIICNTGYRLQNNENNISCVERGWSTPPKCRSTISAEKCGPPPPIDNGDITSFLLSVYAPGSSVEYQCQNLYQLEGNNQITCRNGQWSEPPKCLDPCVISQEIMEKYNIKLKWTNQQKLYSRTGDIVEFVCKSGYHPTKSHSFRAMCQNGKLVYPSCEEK

[4] = target: T4, reduced CFHR3 (UniProt Q02985 19-330, limits assumed); experiment: ELISA, reduced antigen
T4 sequence (looked up): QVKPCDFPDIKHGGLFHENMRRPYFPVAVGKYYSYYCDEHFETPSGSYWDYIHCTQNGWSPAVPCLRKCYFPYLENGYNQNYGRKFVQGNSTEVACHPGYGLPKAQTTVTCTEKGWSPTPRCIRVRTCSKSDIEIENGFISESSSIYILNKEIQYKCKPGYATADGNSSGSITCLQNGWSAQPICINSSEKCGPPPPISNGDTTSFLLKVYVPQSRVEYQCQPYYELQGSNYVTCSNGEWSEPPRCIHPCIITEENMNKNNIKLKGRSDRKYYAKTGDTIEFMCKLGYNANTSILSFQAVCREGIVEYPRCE

[5] = target: T1, reduced CFHR5; experiment: ELISA, reduced antigen
[6] = target: T5, reduced CFH (Homo sapiens (Human), UniProt P08603 860-1231, limits assumed); experiment: ELISA, reduced antigen
T5 construct: also called CFH (reduced)
T5 sequence: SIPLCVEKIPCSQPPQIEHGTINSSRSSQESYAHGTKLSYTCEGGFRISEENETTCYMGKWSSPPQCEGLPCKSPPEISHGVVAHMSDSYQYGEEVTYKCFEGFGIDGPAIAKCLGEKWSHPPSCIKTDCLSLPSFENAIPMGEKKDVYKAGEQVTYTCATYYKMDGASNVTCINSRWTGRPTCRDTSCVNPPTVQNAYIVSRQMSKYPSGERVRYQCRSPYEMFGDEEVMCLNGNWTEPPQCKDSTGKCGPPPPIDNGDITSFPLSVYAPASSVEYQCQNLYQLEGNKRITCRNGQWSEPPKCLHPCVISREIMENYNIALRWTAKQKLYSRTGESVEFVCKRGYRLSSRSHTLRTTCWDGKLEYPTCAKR

[7] = target: T6, non-reduced CFH; experiment: ELISA, non-reduced antigen
T6 construct: also called CFH (NON-REDUCED)
T6 chain: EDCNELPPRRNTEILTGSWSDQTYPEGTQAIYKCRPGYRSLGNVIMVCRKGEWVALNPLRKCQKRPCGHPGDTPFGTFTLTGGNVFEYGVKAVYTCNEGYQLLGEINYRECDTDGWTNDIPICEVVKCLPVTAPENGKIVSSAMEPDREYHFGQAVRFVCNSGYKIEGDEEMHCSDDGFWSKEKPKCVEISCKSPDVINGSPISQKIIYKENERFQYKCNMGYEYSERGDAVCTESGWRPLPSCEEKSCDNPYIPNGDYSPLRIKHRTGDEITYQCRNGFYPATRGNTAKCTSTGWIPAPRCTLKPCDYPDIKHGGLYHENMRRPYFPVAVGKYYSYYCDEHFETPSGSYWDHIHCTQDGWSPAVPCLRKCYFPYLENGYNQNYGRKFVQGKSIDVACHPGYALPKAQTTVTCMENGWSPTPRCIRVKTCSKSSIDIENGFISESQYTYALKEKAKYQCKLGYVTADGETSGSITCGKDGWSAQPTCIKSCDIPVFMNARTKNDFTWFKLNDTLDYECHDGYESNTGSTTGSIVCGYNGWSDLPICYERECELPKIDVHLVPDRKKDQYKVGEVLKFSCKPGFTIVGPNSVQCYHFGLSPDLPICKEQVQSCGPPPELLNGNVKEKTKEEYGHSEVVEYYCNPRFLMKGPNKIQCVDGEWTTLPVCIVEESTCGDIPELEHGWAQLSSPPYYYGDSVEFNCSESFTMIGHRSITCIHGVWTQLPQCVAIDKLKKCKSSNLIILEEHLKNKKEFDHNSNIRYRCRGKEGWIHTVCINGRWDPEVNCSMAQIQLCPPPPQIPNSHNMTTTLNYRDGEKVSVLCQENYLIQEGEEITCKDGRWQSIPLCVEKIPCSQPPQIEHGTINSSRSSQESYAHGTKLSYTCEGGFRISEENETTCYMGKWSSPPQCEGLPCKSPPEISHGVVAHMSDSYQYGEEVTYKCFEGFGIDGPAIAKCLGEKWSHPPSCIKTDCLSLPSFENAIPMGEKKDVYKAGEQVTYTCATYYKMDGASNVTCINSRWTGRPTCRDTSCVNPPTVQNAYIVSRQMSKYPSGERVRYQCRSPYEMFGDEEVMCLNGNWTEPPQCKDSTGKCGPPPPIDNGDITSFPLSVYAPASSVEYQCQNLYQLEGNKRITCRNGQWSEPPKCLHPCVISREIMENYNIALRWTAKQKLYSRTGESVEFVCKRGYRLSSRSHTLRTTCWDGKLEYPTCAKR

[8] = target: T7, non-reduced CFHR1; experiment: ELISA, non-reduced antigen
T7 construct: also called CFHR1 (NON-REDUCED)
T7 chain: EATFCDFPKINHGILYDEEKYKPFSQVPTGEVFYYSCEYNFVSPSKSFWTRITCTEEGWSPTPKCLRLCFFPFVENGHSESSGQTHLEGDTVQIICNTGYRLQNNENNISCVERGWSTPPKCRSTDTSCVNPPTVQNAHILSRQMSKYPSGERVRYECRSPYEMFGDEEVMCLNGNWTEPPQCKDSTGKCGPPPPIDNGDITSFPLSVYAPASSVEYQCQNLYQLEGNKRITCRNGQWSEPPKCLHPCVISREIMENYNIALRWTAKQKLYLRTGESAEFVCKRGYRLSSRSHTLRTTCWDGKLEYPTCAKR

[9] = target: T8, non-reduced CFHR2; experiment: ELISA, non-reduced antigen
T8 construct: also called CFHR2 (NON-REDUCED)
T8 chain: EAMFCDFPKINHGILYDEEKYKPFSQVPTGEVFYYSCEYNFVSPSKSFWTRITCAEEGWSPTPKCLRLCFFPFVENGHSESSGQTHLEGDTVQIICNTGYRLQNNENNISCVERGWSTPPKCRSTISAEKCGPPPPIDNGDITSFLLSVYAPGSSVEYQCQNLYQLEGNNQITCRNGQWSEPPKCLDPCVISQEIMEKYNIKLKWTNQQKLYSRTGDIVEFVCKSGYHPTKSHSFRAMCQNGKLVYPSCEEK

[10] = target: T9, non-reduced CFHR3; experiment: ELISA, non-reduced antigen
T9 construct: also called CFHR3 (NON-REDUCED)
T9 chain: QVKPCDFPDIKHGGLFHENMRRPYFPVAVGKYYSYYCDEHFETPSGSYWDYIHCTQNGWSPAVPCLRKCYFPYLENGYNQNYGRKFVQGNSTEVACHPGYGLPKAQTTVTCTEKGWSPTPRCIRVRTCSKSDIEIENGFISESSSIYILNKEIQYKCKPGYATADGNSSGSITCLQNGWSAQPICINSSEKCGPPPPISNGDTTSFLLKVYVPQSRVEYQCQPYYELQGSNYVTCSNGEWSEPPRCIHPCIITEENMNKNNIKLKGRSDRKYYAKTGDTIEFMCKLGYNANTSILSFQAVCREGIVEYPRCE

[11] = target: T10, non-reduced CFHR4; experiment: ELISA, non-reduced antigen
T10 construct: not reduced; also called CFHR4 (NON-REDUCED)

[12] = target: T11, non-reduced CFHR5; experiment: ELISA, non-reduced antigen
T11 construct: also called CFHR5 (NON-REDUCED)
T11 chain: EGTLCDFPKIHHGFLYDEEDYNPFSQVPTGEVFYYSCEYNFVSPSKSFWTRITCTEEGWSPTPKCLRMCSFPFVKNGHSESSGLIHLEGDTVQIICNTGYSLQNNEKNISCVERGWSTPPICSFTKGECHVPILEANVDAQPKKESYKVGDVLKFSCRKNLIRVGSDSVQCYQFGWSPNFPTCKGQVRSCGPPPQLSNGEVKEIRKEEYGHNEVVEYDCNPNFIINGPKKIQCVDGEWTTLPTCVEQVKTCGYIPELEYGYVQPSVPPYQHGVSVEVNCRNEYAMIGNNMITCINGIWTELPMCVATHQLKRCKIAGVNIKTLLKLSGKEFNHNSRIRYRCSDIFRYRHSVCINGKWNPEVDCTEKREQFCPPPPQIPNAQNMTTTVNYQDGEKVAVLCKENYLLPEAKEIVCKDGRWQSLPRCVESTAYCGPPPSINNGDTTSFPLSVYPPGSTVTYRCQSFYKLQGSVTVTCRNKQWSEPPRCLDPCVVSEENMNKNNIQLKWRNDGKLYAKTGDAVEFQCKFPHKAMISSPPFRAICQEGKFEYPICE

[13] = target: T5, reduced CFH; experiment: ELISA on reduced CFH after heating the mAb (70 C, 1 h, as Figure 16)
[14] = target: T4, reduced CFHR3; experiment: ELISA on reduced CFHR3
[15] = target: T1, reduced CFHR5; experiment: ELISA on reduced CFHR5

Row | Binder | binding result [1] | fold change vs isotype at 1 ug/ml [2] [fold] | fold change vs isotype at 1 ug/ml [3] [fold] | binding result [4] | fold change vs isotype at 1 ug/ml [4] [fold] | binding result [5] | fold change vs isotype at 1 ug/ml [5] [fold] | fold change vs isotype at 1 ug/ml [6] [fold] | fold change vs isotype at 1 ug/ml [7] [fold] | fold change vs isotype at 1 ug/ml [8] [fold] | fold change vs isotype at 1 ug/ml [9] [fold] | binding result [10] | fold change vs isotype at 1 ug/ml [10] [fold] | fold change vs isotype at 1 ug/ml [11] [fold] | binding result [12] | fold change vs isotype at 1 ug/ml [12] [fold] | Harsh Heat challenge ELISA value [13] | binding result [14] | binding result [15]
1 | B1 | no binding |  |  |  |  |  |  |  |  |  |  |  |  |  |  |  |  |  | 
2 | B2 |  | 22.9 | 9.9 | no binding (tested: 1 ug/ml) | 0.9 | no binding (tested: 1 ug/ml) | 1 | 17.2 | 10 | 10.1 | 3.9 | no binding (tested: 1 ug/ml) | 1 | 0.9 | no binding (tested: 1 ug/ml) | 0.9 | 0.09 |  | 
3 | B3 |  | 23 | 11.3 |  | 1 |  | 1 |  |  | 13 | 7 | no binding (tested: 1 ug/ml) | 1 | 1 | no binding (tested: 1 ug/ml) | 1 |  | no binding (tested: 100 ug/ml) | no binding (tested: 100 ug/ml)
4 | B4 |  | 24.4 | 10.3 |  | 1 |  | 1 | 18.4 | 9.8 | 16.6 | 7.7 |  | 1 |  |  | 0.9 | 0.58 |  | 
